Data set [1] addresses Rubisco (Ribulose-1,5-bis-phosphate carboxylase/oxygenase) purified from Oryza sativa leaves (Oryza sativa) (UniProt P0C512). As to the kind of experiment: cell-based or functional assay.
Data set [2] has as its target Rubisco from wheat (wheat) (UniProt P11383). Put plainly: cell-based or functional assay.
The target of data set [3] is Rubisco (Ribulose-1,5-bis-phosphate carboxylase/oxygenase) purified from Oryza sativa leaves, P0C512.

Some results are limits rather than exact numbers.

For “leaf-extracted RCA from Oryza sativa (partially purified, alpha and beta isoforms) (from UniProt P93431 49-466; P93431 49-428) (enzyme)”, in data set [1], the reduction in fraction of Rubisco activated at comparable temperatures was found to be 80%.
Take “beta isoform of RCA extracted from wheat leaves (0.2 M KCl anion-exchange fraction) (enzyme)”: the activation of wheat Rubisco by leaf-extracted beta isoform at less than 34° C., relative to the rice RCA isoforms in data set [2] was > 2 fold.

B1: recombinant Oryza australiensis Rubisco activase (RCA), alpha (long) isoform (protein)
chain: MAKELDEDKQTDQDKWKGLAYDISDDQQDITRGKGLVDSLFQAPMGDGTHEAVLSSYEYLSQGLKMLDNTMGGFYIAPAFMDKLVVHISKNFMALPNIKVPLILGIWGGKGQGKSFQCELVFSKMGINPIMMSAGELESGNAGEPAKLIRQRYREAADIIKKGKMCCLFINDLDAGAGRMGGTTQYTVNNQMVNATLMNIADNPTNVQLPGMYNKEDNPRVPIIVTGNDFSTLYAPLIRDGRMEKFYWAPTRDDRVGVCKGIFRTDNVPDEDIVKIVDSFPGQSIDFFGALRARVYDDEVRKWVSDTGVENIGKKLVNSREGPPEFEQPKMTIDKLMEYGHMLVREQENVKRVQLADKYLSEAALGDANSDAMKTGSFYGQGAQQGGNLPVPEGCTDPVAKNFDPTARSDDGSCLYTF
For B1, the “concentration-dependent specific activity of ATP hydrolysis” value was “specific activity of ATP hydrolysis falls at low RCA concentrations” and the “temperature stability of ATP hydrolysis” value was “both being heat stable, not losing activity until 40 °C”. Further, the “Rubisco activation activity of recombinant RCA at 30 and 36° C.” value in data set [3] is “there is little difference in activity of the α isoform between the species”.

B2: recombinant Oryza sativa Rubisco activase (RCA), beta (short) isoform (protein)
chain: MAKELDEGKQTDQDRWKGLAYDISDDQQDITRGKGFVDSLFQAPTGDGTHEAVLSSYEYLSQGLRTYDFDNTMGGFYIAPAFMDKLVVHISKNFMTLPNIKVPLILGIWGGKGQGKSFQCELVFAKMGINPIMMSAGELESGNAGEPAKLIRQRYREAADIIKKGKMCCLFINDLDAGAGRMGGTTQYTVNNQMVNATLMNIADNPTNVQLPGMYNKEDNPRVPIIVTGNDFSTLYAPLIRDGRMEKFYWAPTRDDRVGVCKGIFRTDNVPDEDIVKIVDSFPGQSIDFFGALRARVYDDEVRKWVSDTGVENIGKRLVNSREGPPEFEQPKMTIEKLMEYGYMLVKEQENVKRVQLAEQYLSEAALGDANSDAMKTGSFYGSAPSS
As for B2, the “concentration-dependent specific activity of ATP hydrolysis” value is given as “specific activity of ATP hydrolysis falls at low RCA concentrations” and the “temperature stability of ATP hydrolysis” value is “both being heat stable, not losing activity until 40 °C”. For the same molecule, the “Rubisco activation activity of recombinant RCA at 30 and 36° C.” value in data set [3] was “the β isoform of RCAOs has higher activity than RCAOa”.

B3: recombinant Oryza australiensis Rubisco activase (RCA), beta (short) isoform (protein)
chain: MAKELDEDKQTDQDKWKGLAYDISDDQQDITRGKGLVDSLFQAPMGDGTHEAVLSSYEYLSQGLKMLDNTMGGFYIAPAFMDKLVVHISKNFMALPNIKVPLILGIWGGKGQGKSFQCELVFSKMGINPIMMSAGELESGNAGEPAKLIRQRYREAADIIKKGKMCCLFINDLDAGAGRMGGTTQYTVNNQMVNATLMNIADNPTNVQLPGMYNKEDNPRVPIIVTGNDFSTLYAPLIRDGRMEKFYWAPTRDDRVGVCKGIFRTDNVPDEDIVKIVDSFPGQSIDFFGALRARVYDDEVRKWVSDTGVENIGKKLVNSREGPPEFEQPKMTIDKLMEYGHMLVREQENVKRVQLADKYLSEAALGDANSDAMKTGSFYGAAPSS
As to B3, the “concentration-dependent specific activity of ATP hydrolysis” value is reported as “specific activity of ATP hydrolysis falls at low RCA concentrations” and the “temperature stability of ATP hydrolysis” value was “both being heat stable, not losing activity until 40 °C”. Also, the “Rubisco activation activity of recombinant RCA at 30 and 36° C.” value in data set [3] was “the β isoform of RCAOs has higher activity than RCAOa”.

B4: leaf-extracted RCA from Oryza sativa (partially purified, alpha and beta isoforms) (protein)
chain 1: KELDEGKQTDQDRWKGLAYDISDDQQDITRGKGFVDSLFQAPTGDGTHEAVLSSYEYLSQGLRTYDFDNTMGGFYIAPAFMDKLVVHISKNFMTLPNIKVPLILGIWGGKGQGKSFQCELVFAKMGINPIMMSAGELESGNAGEPAKLIRQRYREAADIIKKGKMCCLFINDLDAGAGRMGGTTQYTVNNQMVNATLMNIADNPTNVQLPGMYNKEDNPRVPIIVTGNDFSTLYAPLIRDGRMEKFYWAPTRDDRVGVCKGIFRTDNVPDEDIVKIVDSFPGQSIDFFGALRARVYDDEVRKWVSDTGVENIGKRLVNSREGPPEFEQPKMTIEKLMEYGYMLVKEQENVKRVQLAEQYLSEAALGDANSDAMKTGSFYGQGAQQAGNLPVPEGCTDPVAKNFDPTARSDDGSCLYTF
chain 2: KELDEGKQTDQDRWKGLAYDISDDQQDITRGKGFVDSLFQAPTGDGTHEAVLSSYEYLSQGLRTYDFDNTMGGFYIAPAFMDKLVVHISKNFMTLPNIKVPLILGIWGGKGQGKSFQCELVFAKMGINPIMMSAGELESGNAGEPAKLIRQRYREAADIIKKGKMCCLFINDLDAGAGRMGGTTQYTVNNQMVNATLMNIADNPTNVQLPGMYNKEDNPRVPIIVTGNDFSTLYAPLIRDGRMEKFYWAPTRDDRVGVCKGIFRTDNVPDEDIVKIVDSFPGQSIDFFGALRARVYDDEVRKWVSDTGVENIGKRLVNSREGPPEFEQPKMTIEKLMEYGYMLVKEQENVKRVQLAEQYLSEAALGDANSDAMKTGSFYGSAPSS
B4: the “peak in RCA activation performance (temperature of maximal Rubisco activation)” value in data set [3] was 29.9±0.5 °C for O. sativa.

B5: recombinant Oryza sativa Rubisco activase (RCA), alpha (long) isoform (protein)
chain: MAKELDEGKQTDQDRWKGLAYDISDDQQDITRGKGFVDSLFQAPTGDGTHEAVLSSYEYLSQGLRTYDFDNTMGGFYIAPAFMDKLVVHISKNFMTLPNIKVPLILGIWGGKGQGKSFQCELVFAKMGINPIMMSAGELESGNAGEPAKLIRQRYREAADIIKKGKMCCLFINDLDAGAGRMGGTTQYTVNNQMVNATLMNIADNPTNVQLPGMYNKEDNPRVPIIVTGNDFSTLYAPLIRDGRMEKFYWAPTRDDRVGVCKGIFRTDNVPDEDIVKIVDSFPGQSIDFFGALRARVYDDEVRKWVSDTGVENIGKRLVNSREGPPEFEQPKMTIEKLMEYGYMLVKEQENVKRVQLAEQYLSEAALGDANSDAMKTGSFYGQGAQQAGNLPVPEGCTDPVAKNFDPTARSDDGSCLYTF
For the molecule B5, the “concentration-dependent specific activity of ATP hydrolysis” value is on record as “specific activity of ATP hydrolysis falls at low RCA concentrations” and the “temperature stability of ATP hydrolysis” value was “both being heat stable, not losing activity until 40 °C”. Further, the “Rubisco activation activity of recombinant RCA at 30 and 36° C.” value in data set [3] is given as “there is little difference in activity of the α isoform between the species”.

B6: leaf-extracted RCA from Oryza australiensis (partially purified, alpha and beta isoforms) (protein)
chain 1: KELDEDKQTDQDKWKGLAYDISDDQQDITRGKGLVDSLFQAPMGDGTHEAVLSSYEYLSQGLKMLDNTMGGFYIAPAFMDKLVVHISKNFMALPNIKVPLILGIWGGKGQGKSFQCELVFSKMGINPIMMSAGELESGNAGEPAKLIRQRYREAADIIKKGKMCCLFINDLDAGAGRMGGTTQYTVNNQMVNATLMNIADNPTNVQLPGMYNKEDNPRVPIIVTGNDFSTLYAPLIRDGRMEKFYWAPTRDDRVGVCKGIFRTDNVPDEDIVKIVDSFPGQSIDFFGALRARVYDDEVRKWVSDTGVENIGKKLVNSREGPPEFEQPKMTIDKLMEYGHMLVREQENVKRVQLADKYLSEAALGDANSDAMKTGSFYGQGAQQGGNLPVPEGCTDPVAKNFDPTARSDDGSCLYTF
chain 2: KELDEDKQTDQDKWKGLAYDISDDQQDITRGKGLVDSLFQAPMGDGTHEAVLSSYEYLSQGLKMLDNTMGGFYIAPAFMDKLVVHISKNFMALPNIKVPLILGIWGGKGQGKSFQCELVFSKMGINPIMMSAGELESGNAGEPAKLIRQRYREAADIIKKGKMCCLFINDLDAGAGRMGGTTQYTVNNQMVNATLMNIADNPTNVQLPGMYNKEDNPRVPIIVTGNDFSTLYAPLIRDGRMEKFYWAPTRDDRVGVCKGIFRTDNVPDEDIVKIVDSFPGQSIDFFGALRARVYDDEVRKWVSDTGVENIGKKLVNSREGPPEFEQPKMTIDKLMEYGHMLVREQENVKRVQLADKYLSEAALGDANSDAMKTGSFYGAAPSS
B6: in data set [3], the “absolute rate of Rubisco activation at 42° C. relative to Os RCA” value was “at 42 °C Oa had an absolute rate of activity four-times that of Os”; the “drop in Rubisco activation activity at 42° C. relative to 30° C., RCA at 0.96 mg·mL^-1” value was “close to a 50% drop in activity at 42 °C relative to 30 °C”; the “fall in Rubisco activation activity at 42° C. relative to 30° C., RCA at 0.24 and 0.49 mg·mL^-1” value was “less than a 20% fall at concentrations of 0.24 and 0.49 mg·mL^-1”; the “peak in RCA activation performance (temperature of maximal Rubisco activation)” value amounted to 33.0±0.3 °C for O. australiensis.

The values above are taken from US20180037904A1.
